According to patent US20130078188A1:

Target: thrombin (endogenous, in developing blood clots of mice) (mouse) (UniProt P19221)
Assay: cell-based or functional assay

Sequence of hirudin (P01050 whole entry): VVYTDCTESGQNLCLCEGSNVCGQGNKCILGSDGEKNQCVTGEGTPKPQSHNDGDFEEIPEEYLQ

For hirudin (from UniProt P01050 1-65), the inhibition of the Cy5/Cy7 ratio increase of … in tail clots of mice was > 90%.
